Legend:
[1] = tested on: Escherichia coli MG1655; test: Plate-based growth inhibition assay; type: cell-based; settings: overnight incubation, 384 well plate, two replicates; peptide purified from CFPS
Protocol: Antimicrobial peptide activity was tested with a plate-based growth inhibition study. A 5 ml culture of Escherichia coli MG1655 was grown overnight on Luria Broth (LB) from a glycerol stock. On the day of the assay, the overnight culture was diluted to an OD of 0.08 in LB and then grown to mid log phase (OD ˜0.5). The mid log phase cells were diluted to […] (assuming 1 OD=8×10^8 cells/ml) into LB with 0.005% Antifoam 204 (Sigma A6426) and 1 mg/ml BSA (Sigma-Aldrich A2153-100G). 5 μl of these cells were added to 10 μl of purified antimicrobial peptide in a UV-sterilized 384 well, clear bottom plate (Greiner Bio-One 781096). Positive controls included 10 μl of the wash buffer the hormones were dissolved in and 10 μl of a no DNA control where no DNA template was added to the CFPS reactions, but the sample was treated exactly like the other antimicrobial peptide samples. Negative controls included a final kanamycin concentration of 50 μg/ml and adding 10 μl of the LB with 0.005% Antifoam 204 and 1 mg/ml BSA without E. coli cells. The plate was sealed with a microseal B adhesive (Bio-Rad MSB1001) and incubated in a plate reader with continuous shaking for 18 hr at 37° C. and absorbance measurements at 600 nm every 15 min.

[2] = target: T1, extracellular domain of PTH receptor (Homo sapiens, UniProt Q03431); test: AlphaLISA cross-titration of PTH and PTH receptor; type: binding; settings: sFLAG-tagged PTH, anti-FLAG donor beads; His-tagged PTH receptor, nickel chelate acceptor beads
T1 construct: purchased Abcam ab182670
T1 sequence (Q03431 27-186 limits assumed): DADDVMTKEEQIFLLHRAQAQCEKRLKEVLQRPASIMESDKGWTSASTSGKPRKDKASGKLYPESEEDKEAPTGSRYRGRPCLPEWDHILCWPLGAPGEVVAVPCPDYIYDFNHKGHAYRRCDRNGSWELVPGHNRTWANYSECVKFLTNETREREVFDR

[3] = target: T2, parathyroid hormone receptor (Homo sapiens, UniProt Q03431); test: Biolayer interferometry (BLI) of PTH binding to its receptor; settings: undiluted CFPS PTH or 67 μg/ml commercial PTH; with and without receptor on tip
T2 construct: purchased R&D systems 5709-PR-50
T2 sequence (Q03431 27-186 limits assumed): T1 sequence (Q03431 27-186 limits assumed)
Source text: In fact, the entire sequences except for the two N-terminal and C-terminal amino acids were confirmed for both GLP-1 mutant and GLP-1 in these experiments. The peptide hormones are cleaved precisely at the C-terminus of SUMO to give tagless hormones as expected. […] There was low signal relative to GH, however, the binding signal is still more than 3 standard deviations above the background noise. Unfortunately, this binding was unable to be confirmed with BLI, likely because the hormone is too small (3.5 kDa) to generate enough of a wavelength shift to be detected by the instrument (FIG. 9f). […] Full-length parathyroid hormone was detected in the deconvoluted LC-MS spectra with an observed mass of 9424.66 Da, which matches the theoretical mass of 9424.73 Da with an error of 7.4 ppm (FIG. 10a). PTH was also detected by two orthogonal antibodies in a commercial sandwich ELISA assay (Biomatik EKF58372). The concentration was determined to be 24±11 μg/ml with 4 dilutions of a single sample (FIG. 10a). This value is approximately 80% of that detected by BCA and densitometry. […] Black lines represent a commercially purchased positive control PTH (OriGene SA6052) where there is no receptor immobilized on the lightly shaded line and receptor immobilized with the dark line. […]

Row | Substance | Growth of E. coli MG1655 [1] | PTH interaction with extracellular domain of its receptor (AlphaLISA) [2] | PTH binding to extracellular domain of its receptor (BLI) [3]
1 | Melittin | inhibiting growth of the bacteria |  | 
2 | Parathyroid Hormone [PTH] |  | very low signal that has a typical binding pattern | unable to detect PTH binding
3 | positive control PTH: commercially purchased positive control PTH (OriGene SA6052) [reference compound] |  |  | high background binding

From patent US20240383959A1, “CELL-FREE METHODS AND COMPOSITIONS COMPRISING TAGLESS THERAPEUTIC HORMONES” (Northwestern University, priority 2021, published 2024)
